Our source for the reduction of the level of ACE2 in HeLa cells after 18 h with conditioned medium (Western blot, relative to β-actin) and reduction of the level of ACE2 in HeLa cells after 18 h with PCSK9 conditioned medium (Western blot, relative to β-actin) values is paper PMC9959508.

This experiment deals with human angiotensin-converting enzyme 2 (human) (UniProt Q9BYF1).
Sequence of human angiotensin-converting enzyme 2 (human) (Q9BYF1 18-805): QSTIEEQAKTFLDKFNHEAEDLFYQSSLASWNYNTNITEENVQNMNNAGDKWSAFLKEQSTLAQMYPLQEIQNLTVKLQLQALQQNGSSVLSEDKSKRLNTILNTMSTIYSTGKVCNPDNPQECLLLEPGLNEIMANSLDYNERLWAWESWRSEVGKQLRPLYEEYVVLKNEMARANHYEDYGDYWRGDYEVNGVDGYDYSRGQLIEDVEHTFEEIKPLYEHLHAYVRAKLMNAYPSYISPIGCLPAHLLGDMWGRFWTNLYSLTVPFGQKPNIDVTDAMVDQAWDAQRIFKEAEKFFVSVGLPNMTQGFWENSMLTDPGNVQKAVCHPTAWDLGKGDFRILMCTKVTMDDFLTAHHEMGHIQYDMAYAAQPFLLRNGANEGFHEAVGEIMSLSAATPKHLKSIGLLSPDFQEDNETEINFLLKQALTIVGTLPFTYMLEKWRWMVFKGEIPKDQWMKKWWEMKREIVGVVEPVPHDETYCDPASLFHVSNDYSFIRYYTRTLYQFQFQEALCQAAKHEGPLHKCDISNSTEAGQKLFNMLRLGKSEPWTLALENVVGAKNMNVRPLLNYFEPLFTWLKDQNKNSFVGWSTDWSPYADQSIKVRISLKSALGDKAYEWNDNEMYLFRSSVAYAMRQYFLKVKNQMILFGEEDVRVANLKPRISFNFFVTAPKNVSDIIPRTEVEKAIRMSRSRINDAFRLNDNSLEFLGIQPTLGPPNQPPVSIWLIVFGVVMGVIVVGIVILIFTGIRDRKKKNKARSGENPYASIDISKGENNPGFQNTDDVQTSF

Sequence of wild-type human PCSK9, mature (prodomain non-covalently bound to the rest of the protein) (Q8NBP7 31-152): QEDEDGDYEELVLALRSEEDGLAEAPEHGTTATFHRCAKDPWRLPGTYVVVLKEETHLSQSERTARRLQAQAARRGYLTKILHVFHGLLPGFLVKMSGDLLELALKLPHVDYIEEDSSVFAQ
Sequence of wild-type human PCSK9, mature (prodomain non-covalently bound to the rest of the protein) (Q8NBP7 153-692): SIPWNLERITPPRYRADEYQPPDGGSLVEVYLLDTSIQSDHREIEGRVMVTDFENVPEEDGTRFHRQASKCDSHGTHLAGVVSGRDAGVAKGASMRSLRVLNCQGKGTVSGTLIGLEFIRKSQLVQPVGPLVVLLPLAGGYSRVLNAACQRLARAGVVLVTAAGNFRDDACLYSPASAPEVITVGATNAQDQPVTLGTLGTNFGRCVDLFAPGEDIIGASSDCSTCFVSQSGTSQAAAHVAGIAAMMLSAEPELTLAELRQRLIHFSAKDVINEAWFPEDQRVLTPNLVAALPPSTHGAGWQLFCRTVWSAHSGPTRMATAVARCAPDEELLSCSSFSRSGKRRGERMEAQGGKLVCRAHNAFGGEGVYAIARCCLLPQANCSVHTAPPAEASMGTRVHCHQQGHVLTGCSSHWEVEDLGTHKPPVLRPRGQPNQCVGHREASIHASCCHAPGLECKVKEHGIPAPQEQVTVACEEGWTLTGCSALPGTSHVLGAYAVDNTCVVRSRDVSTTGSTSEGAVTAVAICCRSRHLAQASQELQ
Sequence of PCSK9 lacking the CHRD (Q8NBP7 31-152): as the sequence (Q8NBP7 31-152) above
Sequence of PCSK9 lacking the CHRD (Q8NBP7 153-455): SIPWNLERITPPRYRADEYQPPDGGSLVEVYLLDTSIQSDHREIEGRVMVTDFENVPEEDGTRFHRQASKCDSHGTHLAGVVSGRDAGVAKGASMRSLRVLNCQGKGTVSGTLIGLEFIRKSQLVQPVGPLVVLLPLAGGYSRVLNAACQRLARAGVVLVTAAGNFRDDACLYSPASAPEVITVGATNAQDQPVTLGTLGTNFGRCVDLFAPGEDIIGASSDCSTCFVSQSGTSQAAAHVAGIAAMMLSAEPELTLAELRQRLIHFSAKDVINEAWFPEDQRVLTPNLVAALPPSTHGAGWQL
Sequence of PCSK9 lacking the M2 module of the CHRD (Q8NBP7 31-152): as the sequence (Q8NBP7 31-152) above
Sequence of PCSK9 lacking the M2 module of the CHRD (Q8NBP7 153-692): as the sequence (Q8NBP7 153-692) above

For “PCSK9 lacking the CHRD (from UniProt Q8NBP7 31-152; Q8NBP7 153-455) (domain or fragment)”, the reduction of the level of ACE2 in HeLa cells after 18 h with conditioned medium (Western blot, relative to β-actin) was determined as 50%.
On the same count and under the same terms, for “PCSK9 lacking the M2 module of the CHRD (from UniProt Q8NBP7 31-152; Q8NBP7 153-692) (natural protein)” the value was 50%; for “PCSK9-D374Y, gain-of-function natural variant (from UniProt Q8NBP7 31-152; Q8NBP7 153-692) (natural protein)”, 90%.
Substance “wild-type human PCSK9, mature (prodomain non-covalently bound to the rest of the protein) (from UniProt Q8NBP7 31-152; Q8NBP7 153-692) (natural protein)” had a reduction of the level of ACE2 in HeLa cells after 18 h with PCSK9 conditioned medium (Western blot, relative to β-actin) of 30%.
